The results in this text go back to patent publication US20160264648A1 (OSAKA UNIVERSITY, published 2016).

For test [1], the target named is hemagglutinin (HA) of influenza A virus A/Brisbane/59/2007 (seasonal H1N1) (influenza A virus A/Brisbane/59/2007 (H1N1sea)). Description: cell-based or functional assay.
Test [2] deals with hemagglutinin (HA) of influenza A virus A/Suita/117/2011 (H1N1pdm) (influenza A virus A/Suita/117/2011 (H1N1pdm)). The test can be described thus: cell-based or functional assay.
Test [3] deals with hemagglutinin (HA) of influenza A virus A/Suita/105/2011 (H1N1pdm) (influenza A virus A/Suita/105/2011 (H1N1pdm)). The test can be described thus: cell-based or functional assay.
Test [4] has as its target hemagglutinin (HA) of influenza A virus A/Turkey/Wisconsin/1/1966 (H9N2) (influenza A virus A/Turkey/Wisconsin/1/1966 (H9N2)) (UniProt P03457). The test can be described thus: cell-based or functional assay.
The target in test [5] is hemagglutinin (HA) of influenza A virus A/Osaka/168/2009 (H1N1pdm) (influenza A virus A/Osaka/168/2009 (H1N1pdm)). Description: cell-based or functional assay.
Test [6] concerns the target hemagglutinin (HA) of influenza A virus A/Suita/104/2011 (H1N1pdm) (influenza A virus A/Suita/104/2011 (H1N1pdm)). Description: cell-based or functional assay.
The target of test [7] is hemagglutinin (HA) of influenza A virus A/PR8/1934 (seasonal H1N1) (influenza A virus A/PR8/1934 (H1N1sea)) (UniProt P03452). Description: cell-based or functional assay.
For test [8], the target named is hemagglutinin (HA) of influenza A virus A/Aichi/2/1968 (H3N2) (influenza A virus A/Aichi/2/1968 (H3N2), UniProt P03437 17-566). Description: IFA on virus-infected MDCK cells.
Test [9] concerns the target hemagglutinin (HA) of influenza A virus A/Turkey/Wisconsin/1/1966 (H9N2) (influenza A virus …, UniProt P03457 19-560). Description: cell-based or functional assay.
In test [10] the target is hemagglutinin (HA) of influenza A virus A/PR8/1934 (seasonal H1N1) (influenza A virus A/PR8/1934 (H1N1sea), UniProt P03452 18-565). The test can be described thus: cell-based or functional assay.
In test [11] the target is hemagglutinin (HA) of influenza A virus A/Duck/Egypt/D1Br12/2007 (H5N1) (influenza A virus A/Duck/Egypt/D1Br12/2007 (H5N1)). Description: cell-based or functional assay.
Test [12] concerns the target hemagglutinin (HA) of influenza A virus A/Chicken/Egypt/R1MD12-3/2008 (H5N1) (influenza A virus A/Chicken/Egypt/RIMD12-3/2008 (H5N1)). The test can be described thus: cell-based or functional assay.

On to “mouse MAb C179 capable of exhibiting a broad reactivity with HAs belonging to group 1 (antibody)”, for which the Neutralization activity (VN50 value µg/ml) in [1] was 5.57 µg/mL; in test [2], 5.73 µg/mL; in test [3] it was 3.11 µg/mL; in test [4], 5.53 µg/mL; in test [5], 5.68 µg/mL; in test [6], 5.98 µg/mL. Also, in test [7], the Neutralization activity (VN50 value µg/ml) turned out to be 3.1 µg/mL.

B1: human monoclonal antibody (HuMAb) 1H11 (antibody, V domains shown)
VH: QVQLVQSGAEVKKPGSSVKVSCKSSGGNFNNYAVSWVRQAPGQGLEWMGGISPIFGSTNHAQKFQGRVTISADIFTNTAYMELSSLRSDDTAIYYCARGRGYYFYHAMDVWGQGSTVTVSS
VL: QSALTQPASVSGSPGQSITISCTGTSSDVGGYNYVSWYQQHPGEAPKLMISDVSNRPSGVSNRFSGSKSGNTASLTISGLQAEDEADYYCTSYTSSNTLVFGGGTKLTVL
For B1, the binding result in [8] is “no binding”. Moreover, the “Neutralization activity (VN50 value µg/ml)” value in [9] came to 11.8 µg/mL; in test [10] it was 2.87 µg/mL; in test [1], 2.89 µg/mL; in test [2], 11.6 µg/mL; in test [3], 11.4 µg/mL; in test [5], 0.78 µg/mL. Besides, the Neutralization activity (VN50 value µg/ml) in test [6] was determined as 11.3 µg/mL; in [11] it was 6.08 µg/mL; in [12] it was 6.12 µg/mL.

B2: human monoclonal antibody (HuMAb) 2H5 (antibody, V domains shown)
VH: QVQLVQSGAEVKKPGSSVKVSCKSSGGNFNNYAVSWVRQAPGQGLEWMGGISPIFGSTNHAQKFQGRVTISADIFTNTAYMELSSLRSDDTAIYYCARGRGYYFYHAMDVWGQGSTVTVSS
VL: QSVLTQPPSVSAAPGQKVTISCSGSSSNIGHNFVSWYQQLPATAPKLLIYDTDKRPSGIPDRFSGSKSGTSATLGITGLQTGDEADYYCGTWDSSLSSVIFGGGTKLTVL
For the molecule B2, the binding result in test [8] was “no binding”. Moreover, the “Neutralization activity (VN50 value µg/ml)” value in [9] was above 100 µg/mL; in test [10], 5.83 µg/mL; in test [1], 5.53 µg/mL; in test [2], 6.03 µg/mL; in test [3] it was 6.21 µg/mL; in [5] it was 1.51 µg/mL. Also, the values for the Neutralization activity (VN50 value µg/ml) in test [6], in test [11] and in test [12] were 6 µg/mL, 6.05 µg/mL and 11.7 µg/mL, respectively.
